Test results published in the nanobody polyreactivity screen of Harvey et al. (2022).

Test: yeast display, Sf9 membrane polyspecificity reagent, FACS + sequencing; frameworks hold sequencing errors
Outline: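 A synthetic nanobody library was expressed on Saccharomyces cerevisiae BJ5465 by galactose induction for 36–48 hours. The library was stained for 1 hour at 4 °C with 10% biotinylated, detergent-solubilized Sf9 membrane reagent and enriched with streptavidin microbeads before FACS. Low and high (top ~1%) gates were set on anti-HA fluorescence for expression and streptavidin fluorescence for reagent binding, and each polyreactivity label reflects the gate of origin.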

Row | Sequence | polyreactivity (PSR sort gate)
1 | QVQLVESGGGLVQAGGRLRLSCAASGFTYPEYAMGWYRQAPGKEMELVAAIDSGDGSTYYADSVKGRFTISRDNAKNTVYLQMISLKPEDTAVYYCATDRYPHSATPGDYWGQGTQVTVSS | low polyreactivity
2 | QVQLVESGGGLVQAGGRLRLSCAASGFYLNAMGWYRQAPGKDRELVATITSSATNTYYADSVKGRFTISRDNAKNTVYLQMNSLKPEDTAVYYCNARYTSHTLADGVYLYDYWGQGTQVTVSS | low polyreactivity
3 | QVQLVESGGGLVQAGGRLRLSCAASGGIFESYAMGWYRQAPGKERELVATITGSGGNTYYADSVKGRFTISRDNAKNTVYLQMNSLKPEDTAVYYCAADTYITPHYLPLLYFLMEYWGQGTQVTVSS | low polyreactivity
4 | QVQLVESGGGLVQAGGRLRLSCAASGGTFYLNAMGWYRQAPGKERELVAAISGSGTSTYYADSVKGRFTISRDNAKNTVYLQMNSLKPEDTAVYYCAADGTYFYIYLGDRFDYWGQGTQVTVSS | low polyreactivity
5 | QVQLVESGGGLVQAGGRLRLSCAASGIFGYNALGWYRQAPGKERELVAAITSSGTSTYYADSVKGRFTISRDNAKNTVYLQMNSLKPEDTAVYYCAALHSGTWTGYGYWGQGTQVTVSS | low polyreactivity
6 | QVQLVESGGGLVQAGGRLRLSCAASGIIFFWYVRGWYRQAPGKERELVAAINRGGITNYADSVKGRFTISRDNAKNTVYLQMNSLKTEDTAVYYCNKDWKTESWFNRYGGYGIEDDYWGQGTQVTVSS | high polyreactivity
7 | QVQLVESGGGLVQAGGRLRLSCAASGIIFGTYAMGWYRPAPGQERELVAAINTGGTTYYADSVKGRFTISRDNAKNTVYLQMNSLKPEDTAVYYCAAEFTRYRYYYHKRPMDYWGQGTQVTVSS | low polyreactivity
8 | QVQLVESGGGLVQAGGRLRLSCAASGIIFPRYMGWYRQAPGKERELVAAIRWSSDDTNYADSVKGRFTISRDNAKNTVYLQMNSLKPEDTAVYYCAAHSYYDRTIQFEFSARTYDYWGQGTQVTVSS | low polyreactivity
9 | QVQLVESGGGLVQAGGRLRLSCAASGIIFQYNAMGWYRQAPGKEREFVAAISYGGTSTYYADSVKGRFTISRDNAKNTVYLQMNSLKPEDTAVYYCAADYQGYTPSDGRYYWGQGTQVTVSS | low polyreactivity
10 | QVQLVESGGGLVQAGGRLRLSCAASGIIVGLYTMGWYRQARGKERELVAAISDSGGRTYYADSVKGRFTISRDNVKNTVYLQMNSLKPEDTAVYYCATRWPHYGGYYYWGQGTQVTVSS | high polyreactivity
11 | QVQLVESGGGLVQAGGRLRLSCAASGINLGRYAMGWYRQAPGKERELVASISWSGGSTYYADSVKGRFTISRDNAKNTVYLQMNSLIPEDPAVYYCAATYWKSRYGVRGYPFGYWGQGTQVTVSS | high polyreactivity
12 | QVQLVESGGGLVQAGGRLRLSCAASGITFQPNAMGWYRQAPGKERELVARITRGGGRTYYADSVKGRFTISRDNAKNTVYLLMHSLKPEDTAVYYCAADYSYIYGFDYWGQGTQVTVSS | low polyreactivity
13 | QVQLVESGGGLVQAGGRLRLSCAASGITFRWYAMGWYRQAPGKERELVAAITTSGDSTYYADSVKGRFTISRDNAKNTVYLQMNSLKPEDTAVNYCAAKYQSLRTYGYGFDYWGQGTQVTVSS | high polyreactivity
14 | QVQLVESGGGLVQAGGRLRLSCAASGITFSYYAMGRYRQAPGKERELVAAISSGGRTYYADSVKGRFTISRDNAKNTVYLQMNSLKQEDTAVYYCAASFLVTSREYDYWGQGTQVTVSS | high polyreactivity
15 | QVQLVESGGGLVQAGGRLRLSCAASGITFWSNALGWYRQAPGKERELVAAMTSGGNTNYADSVKGRFTISRDNAKNTVYLQMNSLKPEDTAVYYCATKQLLRRRQGYYWVGSKHDYWGQGTQVTVSS | high polyreactivity
16 | QVQLVESGGGLVQAGGRLRLSCAASGLIFTWNAMGWYRQAPGKERELVAAISTGGSTSYADSVKGRFTISRDNAMNTVYLQMNSMKPEDTAVYYCARDSSIWSHGSWYDYWGQGTQVTVSS | low polyreactivity
17 | QVQLVESGGGLVQAGGRLRLSCAASGNTLRGYAMGWYRPAPGKERELVSAISYSSVNTYYADSVKGRFTISRDNAKNTVYLQMNSLKPEDTAVYYCAADYYYYRRTQYDLRGYPYYYWGQGTQVTVSS | low polyreactivity
18 | QVQLVESGGGLVQAGGRLRLSCAASGRIFAKNAMGWYRQAPGKERELVAAISGSGGSTYYADSVKGRFTISRDNAKNTVYLQMNSMKPDDTAVYYCAATRGPNYRNGYWGQGTQVTVSS | high polyreactivity
19 | QVQLVESGGGLVQAGGRLRLSCAASGRIFDYNAMGWNRQAPWKERELVAAIRTSGGSTYYADSVKGRFTISRDNAKNTVYLPMISLKPEDNAVYYCAATSRRYRVRYDSWGQGTQVTVSS | high polyreactivity
20 | QVQLVESGGGLVQAGGRLRLSCAASGRIFIRNAMGWYRQAPGKERELVAAIDSVGSTYYADSVKGRFTISRDNAKNTVYLQMNSLKPEDTAVYYCAARGWKYASPYWRYYYWGQGTQVTVSS | low polyreactivity
21 | QVQLVESGGGLVQAGGRLRLSCAASGRIFKFYAMGWYRQAPGKERELVAAIRRGGTTNYADSVKGRFTISRDNAKNTFYLQMNSLKPEDTAVYFCAADGWYRVLTGLVSSWKYWGQGTQVTVSS | high polyreactivity
22 | QVQLVESGGGLVQAGGRLRLSCAASGRIFLGYTMGSYRQAPWKERELVAAISKSGDSTYYADAVKGRFTFSSDNAKYTVFLQMNSLKPEDTAVYYCATRGYQSLRHQGTDDYWGQGTQVTVSS | high polyreactivity
23 | QVQLVESGGGLVQAGGRLRLSCAASGRIFQYNAMGWYRQAPGKERELVAAITSSGGSTYYADSVKGRFTISRDNAKNTVYLQMNSLKPEDTAVYYCAAKRPQYYVQFGYWGHGTQVTVSS | high polyreactivity
24 | QVQLVESGGGLVQAGGRLRLSCAASGRIFVRYVMGWYRQAPGQERALVAAISSSGGSTYYADSVKGRYTISRDTAKKTVYLQMNSLKPEDTAVYYCATDLIDKYFLPYDYWGQGTQVTVSS | low polyreactivity
25 | QVQLVESGGGLVQAGGRLRLSCAASGRIFVYYMGWNIQAPGKERELVAAISFGGGSTYYADSVKGRFTISRDNAKNSVYLQMYSLKPEDTAVYYCNADGDDLDWNYYLVQYDYWGQGTQVTVSS | low polyreactivity
26 | QVQLVESGGGLVQAGGRLRLSCAASGRIFYFYDMGWYRQAPGTERELGAAISRGGSTNYADSVKGRFTISRDNAKNTVYLQMNRLKPQDTAVYYCNAGLYDLRDIAGYSDYDYWGQGTQVTVSS | low polyreactivity
27 | QVQLVESGGGLVQAGGRLRLSCAASGRIFYLNAMGWYRQAPGKETELVAAINTSGDATYYADSEKGRFTISRDIAKNTVYLQMNSLKPEDTAVYYCAAYVIGPDQFIYDYWGQGPQVTVSS | low polyreactivity
28 | QVQLVESGGGLVQAGGRLRLSCAASGRIFYNYAMGWYRQAPGKERELVAAISVSGGSTYYADSVKGRFTISRDNAKNTVYLQMISMKPEDTAVYYCATYSSRQRKSSYYYGGQGTQVTVSS | high polyreactivity
29 | QVQLVESGGGLVQAGGRLRLSCAASGRSFYSYTMGWYRQAPGKERELVAAIRKSGGRTYYADSVKGRFTISRDNAKNTVYLQMNSLKPEDTAVYYCATTNYELSYYYWGQGTQVTVSS | high polyreactivity
30 | QVQLVESGGGLVQAGGRLRLSCAASGRTFANYARGGYRQAPGTERELVAAITSGGRTYYADSVKGRFTISRDNAKNTVYLQMNSLKPEDTPVYYCAAEITYLYDYWGQGTQVTVSS | high polyreactivity
